In patent US7560527 one finds degree of inhibition of the infection of 293-cells with AdLacZ by recombinant Ad5 knob data, which are given here for 1 substance.

In this assay the target is natural cellular receptor for adenovirus on 293 human cells (human). Kind of assay: cell-based or functional assay.

Turning to “native Ad5 fiber carried by the recombinant AdLacZ virus (from UniProt P11818 1-581)”, the degree of inhibition of the infection of 293-cells with AdLacZ by recombinant Ad5 knob at 100 µg/ml came out at 95%.
